ChEMBL document CHEMBL3085760, “Novel polyamine analogues: from substrates towards potential inhibitors of monoamine oxidases” (Eur J Med Chem, 2013)

Columns and labels:
[1] = substrate: CN(CCCCCCCCCCCCN)Cc1ccccc1; assay: (§1) Activity at recombinant human VAP-1 assessed as hydrogen peroxide generation rate preincubated for 30 mins by Amplex Red assay
[2] = substrate: NCCCOCCCCOCCCNCc1cccs1; assay: as §1
[3] = substrate: NCCCCCCCCCCCCNCc1cccs1; assay: as §1
[4] = substrate: NCCCCCCCCCCCCNCc1ccccc1; assay: as §1
[5] = substrate: NCCCCCCCCNCCCNCc1cccs1; assay: as §1
[6] = substrate: CN(CCCCCCCCCCCCN)Cc1ccccc1; assay: (§2) Activity at recombinant human MAO-B expressed in baculovirus infected BT1 cells assessed as hydrogen peroxide generation rate preincubated for 30 mins by Amplex Red assay
[7] = substrate: NCCCOCCCCOCCCNCc1cccs1; assay: as §2
[8] = substrate: NCCCCCCCCCCCCNCc1cccs1; assay: as §2
[9] = substrate: NCCCCCCCCCCCCNCc1ccccc1; assay: as §2
[10] = substrate: CN(CCCCCCCCCCCCN)Cc1ccccc1; assay: (§3) Activity at recombinant human MAO-A expressed in baculovirus infected BT1 cells assessed as hydrogen peroxide generation rate preincubated for 30 mins by Amplex Red assay
[11] = substrate: NCCCCCCCCCCCCNCc1cccs1; assay: as §3
[12] = substrate: NCCCCCCCCCCCCNCc1ccccc1; assay: as §3

B1: Amine oxidase [copper-containing] 3 (Homo sapiens), Q16853 (protein)
chain: MNQKTILVLLILAVITIFALVCVLLVGRGGDGGEPSQLPHCPSVSPSAQPWTHPGQSQLFADLSREELTAVMRFLTQRLGPGLVDAAQARPSDNCVFSVELQLPPKAAALAHLDRGSPPPAREALAIVFFGRQPQPNVSELVVGPLPHPSYMRDVTVERHGGPLPYHRRPVLFQEYLDIDQMIFNRELPQASGLLHHCCFYKHRGRNLVTMTTAPRGLQSGDRATWFGLYYNISGAGFFLHHVGLELLVNHKALDPARWTIQKVFYQGRYYDSLAQLEAQFEAGLVNVVLIPDNGTGGSWSLKSPVPPGPAPPLQFYPQGPRFSVQGSRVASSLWTFSFGLGAFSGPRIFDVRFQGERLVYEISLQEALAIYGGNSPAAMTTRYVDGGFGMGKYTTPLTRGVDCPYLATYVDWHFLLESQAPKTIRDAFCVFEQNQGLPLRRHHSDLYSHYFGGLAETVLVVRSMSTLLNYDYVWDTVFHPSGAIEIRFYATGYISSAFLFGATGKYGNQVSEHTLGTVHTHSAHFKVDLDVAGLENWVWAEDMVFVPMAVPWSPEHQLQRLQVTRKLLEMEEQAAFLVGSATPRYLYLASNHSNKWGHPRGYRIQMLSFAGEPLPQNSSMARGFSWERYQLAVTQRKEEEPSSSSVFNQNDPWAPTVDFSDFINNETIAGKDLVAWVTAGFLHIPHAEDIPNTVTVGNGVGFFLRPYNFFDEDPSFYSADSIYFRGDQDAGACEVNPLACLPQAAACAPDLPAFSHGGFSHN
[1]
  Km: 9 µM
[2]
  Km: 350 µM
[3]
  Km: 11 µM
[4]
  Km: 5 µM
[5]
  Km: 1730 µM

B2: Amine oxidase [flavin-containing] B (Homo sapiens) (protein)
chain: MSNKCDVVVVGGGISGMAAAKLLHDSGLNVVVLEARDRVGGRTYTLRNQKVKYVDLGGSYVGPTQNRILRLAKELGLETYKVNEVERLIHHVKGKSYPFRGPFPPVWNPITYLDHNNFWRTMDDMGREIPSDAPWKAPLAEEWDNMTMKELLDKLCWTESAKQLATLFVNLCVTAETHEVSALWFLWYVKQCGGTTRIISTTNGGQERKFVGGSGQVSERIMDLLGDRVKLERPVIYIDQTRENVLVETLNHEMYEAKYVISAIPPTLGMKIHFNPPLPMMRNQMITRVPLGSVIKCIVYYKEPFWRKKDYCGTMIIDGEEAPVAYTLDDTKPEGNYAAIMGFILAHKARKLARLTKEERLKKLCELYAKVLGSLEALEPVHYEEKNWCEEQYSGGCYTTYFPPGILTQYGRVLRQPVDRIYFAGTETATHWSGYMEGAVEAGERAAREILHAMGKIPEDEIWQSEPESVDVPAQPITTTFLERHLPSVPGLLRLIGLTTIFSATALGFLAHKRGLLVRV
[6]
  Km: 12 µM
[7]
  Km: 401 µM
[8]
  Km: 18 µM
[9]
  Km: 50 µM

B3: Amine oxidase [flavin-containing] A (Homo sapiens) (protein)
chain: MENQEKASIAGHMFDVVVIGGGISGLSAAKLLTEYGVSVLVLEARDRVGGRTYTIRNEHVDYVDVGGAYVGPTQNRILRLSKELGIETYKVNVSERLVQYVKGKTYPFRGAFPPVWNPIAYLDYNNLWRTIDNMGKEIPTDAPWEAQHADKWDKMTMKELIDKICWTKTARRFAYLFVNINVTSEPHEVSALWFLWYVKQCGGTTRIFSVTNGGQERKFVGGSGQVSERIMDLLGDQVKLNHPVTHVDQSSDNIIIETLNHEHYECKYVINAIPPTLTAKIHFRPELPAERNQLIQRLPMGAVIKCMMYYKEAFWKKKDYCGCMIIEDEDAPISITLDDTKPDGSLPAIMGFILARKADRLAKLHKEIRKKKICELYAKVLGSQEALHPVHYEEKNWCEEQYSGGCYTAYFPPGIMTQYGRVIRQPVGRIFFAGTETATKWSGYMEGAVEAGERAAREVLNGLGKVTEKDIWVQEPESKDVPAVEITHTFWERNLPSVSGLLKIIGFSTSVTALGFVLYKYKLLPRS
[10]
  Km: 44 µM
[11]
  Km: 80 µM
[12]
  Km: 43 µM
